The text below walks through data of patent publication US8143216B2, “Modified human growth hormone” (Ambrx, Inc., priority 2004, dated 2012).

In assay [1] the test system is rat model of growth hormone deficiency (hypophysectomized rats). Kind of assay: Efficacy studies of PEGylated hGH in a rat model of growth hormone deficiency (Example 34). The format is in vivo. Here is the method: Preclinical efficacy studies were conducted in a rat model of growth hormone deficiency. In this model, the pituitary gland was surgically removed at approximately 4 weeks of age. The body weights of these hypophysectomized rats were monitored after surgery and animals showing less than 7.5 grams of bodyweight gain over a period of 7 days before the study were deemed successfully hypophysectomized and were randomized amongst the treatment groups. Animals showing more than 2.5 g of weight-loss were deemed not healthy and were excluded from the study. The study was initiated approximately 3 weeks after the surgery.
Animals were dosed weekly (i.e. dosed on days 0 and 7) with either placebo or increasing PEG-^ahGH dose. An additional treatment group received Genotropin or placebo daily. Bodyweights and blood were collected predose and daily. All animals were sacrificed on day 14.
For this parameter, the AUC is expressed as AUC above the efficacious IGF-1 plasma level. […] In the current study, the baseline IGF-1 level determined from the placebo group throughout the study was 128 ng/mL. An increase of 34 ng/mL over 128 ng/mL estimates an efficacious IGF-1 level of 162 ng/mL. Thus the AUC above 162 ng/mL was integrated. From this analysis, a dose-dependent increase in AUC above efficacious level was observed after each dose interval.
The duration of IGF-1 levels induced above the estimated efficacious level after the first dose was determined. At the higher doses, the IGF-1 levels had not returned to baseline before the second dose. In these instances, the IGF-1 concentration was extrapolated to the efficacious level using the calculated terminal slopes. From this evaluation, a dose-dependent increase in duration of IGF-1 concentration above the efficacious level was evident.
Bone growth was used as an additional pharmacodynamic measure to calculate the PEG-^ahGH ED50. Tibias were collected from each animal at the end of the study and immersion fixed in 10% neutral-buffered formalin followed by radiography. There was a clear dose-dependent increase in tibial bone length for the PEG-^ahGH treated animals. Moreover, there was a dose sparing effect compared to the daily Genotropin treated animals. The amount of Genotropin administered over a 7-day interval is equivalent to 2.1 mg/kg of PEG-^ahGH given weekly (i.e., days 0 and 7). An induction of tibial bone length increase similar to Genotropin is shown for PEG-^ahGH at 0.42 to 1.0 mg/kg. This represents a ≧50% dose-sparing effect for PEG-^ahGH when compared to Genotropin.

Assay [2] has as its target T1, human growth hormone receptor on IM-9 cells (Homo sapiens, UniProt P10912).
T1 construct: host or cells: human IM-9 lymphocyte cell line
T1 sequence (P10912 19-638): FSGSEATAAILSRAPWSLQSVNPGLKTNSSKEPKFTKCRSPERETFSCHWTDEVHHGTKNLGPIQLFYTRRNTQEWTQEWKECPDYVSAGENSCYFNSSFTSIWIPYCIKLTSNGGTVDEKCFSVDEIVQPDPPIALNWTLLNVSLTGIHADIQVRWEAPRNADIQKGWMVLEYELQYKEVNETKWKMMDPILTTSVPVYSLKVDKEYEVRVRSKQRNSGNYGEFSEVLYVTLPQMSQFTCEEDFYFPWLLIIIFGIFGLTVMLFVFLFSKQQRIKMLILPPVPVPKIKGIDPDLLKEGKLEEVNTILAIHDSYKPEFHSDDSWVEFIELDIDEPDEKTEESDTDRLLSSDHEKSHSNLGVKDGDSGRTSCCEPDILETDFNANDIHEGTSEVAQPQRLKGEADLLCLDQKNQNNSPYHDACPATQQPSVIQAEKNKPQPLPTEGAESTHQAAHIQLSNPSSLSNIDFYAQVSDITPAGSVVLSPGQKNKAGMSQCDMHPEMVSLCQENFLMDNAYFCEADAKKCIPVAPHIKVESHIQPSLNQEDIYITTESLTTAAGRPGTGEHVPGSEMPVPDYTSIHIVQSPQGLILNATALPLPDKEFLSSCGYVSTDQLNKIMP
Kind of assay: IM-9 pSTAT5 bioassay (STAT5 phosphorylation in IM-9 cells). The assay is classed as cell-based. To be noted: IM-9 cells. From the text:
To further assess the biological activity of modified hGH polypeptides, an assay measuring a downstream marker of hGH's interaction with its receptor was used. The interaction of hGH with its endogenously produced receptor leads to the tyrosine phosphorylation of a signal transducer and activator of transcription family member, STAT5, in the human IM-9 lymphocyte cell line. Two forms of STAT5, STAT5A and STAT5B were identified from an IM-9 cDNA library. See, e.g., Silva et al., Mol. Endocrinol. (1996) 10(5):508-518.
IM-9 cells were stimulated with hGH polypeptides of the present invention. The human IM-9 lymphocytes were purchased from ATCC (Manassas, Va.) and grown in RPMI 1640 supplemented with sodium pyruvate, penicillin, streptomycin (Invitrogen, Carlsbad, San Diego) and 10% heat inactivated fetal calf serum (Hyclone, Logan, Utah). The IM-9 cells were starved overnight in assay media (phenol-red free RPMI, 10 mM Hepes, 1% heat inactivated charcoal/dextran treated FBS, sodium pyruvate, penicillin and streptomycin) before stimulation with a 12-point dose range of hGH polypeptides for 10 min at 37° C. Stimulated cells were fixed with 1% formaldehyde before permeabilization with 90% ice-cold methanol for 1 hour on ice. The level of STAT5 phosphorylation was detected by intra-cellular staining with a primary phospho-STAT5 antibody (Cell Signaling Technology, Beverly, Mass.) at room temperature for 30 min followed by a PE-conjugated secondary antibody. Sample acquisition was performed on the FACS Array with acquired data analyzed on the Flowjo software (Tree Star Inc., Ashland, Oreg.). EC50 values were derived from dose response curves plotted with mean fluorescent intensity (MFI) against protein concentration utilizing SigmaPlot.
The interaction of hGH with its receptor leads to the tyrosine phosphorylation of a signal transducer and activator of transcription family member, STAT5, in the human IM-9 lymphocyte cell line.

Another assay concerns the target T2, rat GHR ECD (L43R) (Rattus norvegicus, UniProt P16310, L61R).
T2 construct: (GHR ECD, amino acids S29-T238) was cloned into pET20b vector; made in house
T2 sequence (P16310 47-256 L61R): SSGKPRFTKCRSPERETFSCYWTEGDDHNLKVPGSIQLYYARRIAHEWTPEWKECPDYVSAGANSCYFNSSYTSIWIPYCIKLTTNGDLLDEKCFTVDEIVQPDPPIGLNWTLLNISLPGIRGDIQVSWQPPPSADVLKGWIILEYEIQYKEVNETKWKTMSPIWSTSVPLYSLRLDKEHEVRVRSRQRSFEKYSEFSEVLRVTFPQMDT
Kind of assay: Biacore analysis of binding of GH to GHR. The settings on record: rat GHR ECD (L43R) immobilized on a CM5 chip, bivalent analyte model. Here is the method:
Cloning and purification of rat GH receptor The extracellular domain of rat GH receptor (GHR ECD, amino acids S29-T238) was cloned into pET20b vector (Novagen) between Nde I and Hind III sites in frame with C-terminal 6H is tag. A mutation of L43 to R was introduced to further approximate the human GH receptor binding site (Souza et al., Proc Natl Acad Sci USA. (1995) 92(4): 959-63). Recombinant protein was produced in BL21 (DE3) E. coli cells (Novagen) by induction with 0.4 mM IPTG at 30° C. for 4-5 hours. After lysing the cells, the pellet was washed four times by resuspending in a dounce with 30 mL of 50 mM Tris, pH 7.6, 100 mM NaCl, 1 mM EDTA, 1% Triton X-100, and twice with the same buffer without Triton X-100. […] Refolding was accomplished by means of passing an aliquot of the inclusion body solution through a S100 (Sigma) gel filtration column, equilibrated with 50 mM Tris, pH 7.8, 1 M L-arginine, 3.7 mM cystamine, 6.5 mM cysteamine. Fractions containing soluble protein were combined and dialyzed against 50 mM Tris, pH 7.6, 200 mM NaCl, 10% glycerol. The sample was briefly centrifuged to remove any precipitate and incubated with an aliquot of Talon resin (Clontech), according to manufacturer's instructions. After washing the resin with 20 volumes of dialysis buffer supplemented with 5 mM imidazole, protein was eluted with 120 mM imidazole in dialysis buffer. Finally, the sample was dialyzed overnight against 50 mM Tris, pH 7.6, 30 mM NaCl, 1 mM EDTA, 10% glycerol, centrifuged briefly to remove any precipitate, adjusted to 20% glycerol final concentration, aliquoted and stored at −80 C. Concentration of the protein was measured by OD(280) using calculated extinction coefficient of ε=65,700 M^−1*cm^−1.
Approximately 600-800 RUs of soluble GHR ECD was immobilized on a Biacore™ CM5 chip, using a standard amine-coupling procedure, as recommended by the manufacturer. […] See, e.g., Cunningham et al. J Mol. Biol. (1993) 234(3): 554-63 and Wells J A. Proc Natl Acad Sci USA (1996) 93(1): 1-6).
Various concentrations of wild type or mutant GH (0.1-300 nM) in HBS-EP buffer (Biacore™, Pharmacia) were injected over the GHR surface at a flow rate of 40 μl/min for 4-5 minutes, and dissociation was monitored for 15 minutes post-injection. The surface was regenerated by a 15 second pulse of 4.5M MgCl2. […] Reference cell with no receptor immobilized was used to subtract any buffer bulk effects and non-specific binding.
Kinetic binding data obtained from GH titration experiments was processed with BiaEvaluation 4.1 software (BIACORE™). […] Equilibrium dissociation constants (Kd) were calculated as ratios of individual rate constants (koff/kon).
In general terms: In SPR one partner is held on a chip, and binding of the other changes the refractive index at the surface.

With “Genotropin: commercial preparation of hGH, Genotropin™ (Pfizer) [reference compound]”, the “bodyweight change on day 14 from day 0” value in assay [1] (daily treatment at 0.3 mg/kg/day) is reported as 27.74 (+/−7.92) %.
For the molecule “unPEGylated GH: unPEGylated GH administered weekly at 2.1 mg/kg in hypophysectomized rats [reference compound]”, in assay [1] (weekly at 2.1 mg/kg dose), the body weight gain result is “failed to induce body weight gain”.

B1: human prolactin: human prolactin (protein)
chain: LPICPGGAARCQVTLRDLFDRAVVLSHYIHNLSSEMFSEFDKRYTHGRGFITKAINSCHTSSLATPEDKEQAQQMNQKDFLSLIVSILRSWNEPLYHLVTEVRGMQEAPEAILSKAVEIEEQTKRLLEGMELIVSQVHPETKENEIYPVWSGLPSLQMADEESRLSAYYNLLHCLRRDSHKIDNYLKLLKCRIIHNNNC
Regarding B1, in assay [2], the STAT5 phosphorylation result is on record as “neither rat growth hormone nor human prolactin resulted in detectable STAT5 phosphorylation”.

B2: rat GH WT: wild type rat growth hormone (protein)
chain: FPAMPLSSLFANAVLRAQHLHQLAADTYKEFERAYIPEGQRYSIQNAQAAFCFSETIPAPTGKEEAQQRTDMELLRFSLLLIQSWLGPVQFLSRIFTNSLMFGTSDRVYEKLKDLEEGIQALMQELEDGSPRIGQILKQTYDKFDANMRSDDALLKNYGLLSCFKKDLHKAETYLRVMKCRRFAESSCAF
As for B2, the STAT5 phosphorylation entry in assay [2] was “neither rat growth hormone nor human prolactin resulted in detectable STAT5 phosphorylation”. The molecule also had a kon with rat GHR ECD (L43R) of 33000 M⁻¹ s⁻¹.

As usually defined, the kon is a measure of how fast the partners come together. A high value points to faster complex formation.
